The text below walks through data of paper PMC3367187.

Common to all, as to assay: EMSA
Background: A gel shift assay detects complexes by their altered migration in electrophoresis.

Series [1] concerns the target T1, HuR (wild type) (UniProt Q15717 1-326).
The target of series [2] is HuRΔH (UniProt Q15717 1-326, del186-242).
Series [3] addresses T1, HuR (wild type). The source holds these as a separate data set.
For series [4], the target named is HuRΔ3 (UniProt Q15717 1-242, del243-326).

Read-outs that look alike come from different tables or passages of the source.

B1: HBSMut_20_MBSp (ssRNA)
RNA: GGUAUAUAUGUCAUGCAUACGUAUGUGCGUAUCUACUAGGUCCAAAGAGUGAGACUGACUAUACAACCUACUACCUCAACGUUACACU
Take B1: the binding result in series [1] is on record as “no binding”.

B2: ΔHBS_20_MBSp (ssRNA)
RNA: GGAGGUCCAAAGAGUGAGACUGACUAUACAACCUACUACCUCAACGUUACACU
In the case of B2, the binding result in series [1] is reported as “no binding”.

B3: HBS_50_MBSp (ssRNA)
RNA: GGUAUUUAUUUAUUUAUUUGUUUGUUUGUUUUAUUGCUGUACGAGAGAGUCACUGUGCUGAUGUGGACUCAACAUCUGAUGAGCAACUAUACAACCUACUACCUCAACGUUACACU
As for B3, the binding result in series [2], in series [3] and in series [4] was “binds” each time.
